# Assay results from a protein production outcome set (Wang et al. 2014).
# Assay: label from the status in PepcDB records
row,Sequence,protein production
1,MGAIPKTGTISPEQKDSQEKNLFQKIWSWEIGVIPLPLYTVLAVIIILAAYYNELPANMLGGFAIIMILGVFLGDIGQRIPILKDIGGPAILSLFVPSFLVFYNVLNSTSLDAVTNLMKTSNFLYFYIACLVVGSILGMNRIVLIQGFIRMFVPLVAGTIAAVAAGILVGFIFGYSAYDSFFFVVVPIIAGGIGEGILPLSIAYSQILGSSADVFVSQLVPAAIIGNVFAIICAALMKKLGDKRPDLNGNGRLVKSKKANEIFNQKEAEAKIDFKLMGAGVLLACTFFIFGGLLEKFIFIPGAILMIISAAAVKYANILPKKMEEGAYQLYKFISSSFTWPLMVGLGILFIPLDDVASVISIPFVIICISVVIAMIGSGYFVGKLMNMYPVESAIVTCCHSGLGGTGDVAILSASGRMGLMPFAQISTRLGGAGTVICATVLLRFFTS,failed
2,MGARAPFAVAGRGEIGRGQQGQAQPGGMMRALALALLLWPACAAAEFFTLKGHGGPVMGIAVGPEGQIATASFDNSVGLWTGRAPHWFEGHEAAVNTVAFQGGVLYSAGDDFTLRRWPEGTILGRHKGKITGLALSETLAATASWDGTIGLWPLDSRAPRSLDAASGVNAVAFSPDGTLLYSAGMDGVLRLWDVASGSELRQITRHGFGINEIVLNDADGWLAYGAVDGVTRILDLATGAERDFTLDRRPVLALALSPDRSQLAVGDGEGYIMVIDTASWRIARDFRATLRGPVWALAFSPDGANIHAGGIDDTMYSWPVASLSEHGKMASGERSFLKDPDQMDNGERQFARKCSICHALTPEGGRRAGPTLYRVFGRRAGTLPGYLYSDTLAGSDIVWTEESINSLFDLGPDHYIPGSKMPMQRITGAQDRADLIAYLRRATLAKESP,failed
3,MGAVSAFSWASSGRLHALEVFVMKIPKTYDEIMEHFGGLIDEVTAELLESYAKGETVRVSEALAKSGRVAVEGVVLRVFPVRHFSKNGRSGKVGSVVIQDDCTVRVNFWNEAAEIIEAGDIVEGARIKVRGYARGEEIHVNSLSEVEVFVDFVNISELDEKVGERVNVKGFVSGLGEPEKANEIYISDETGRVKVLLENESLYYAVDIGSYVEIYNALAGEDGIYVDRNSRFSVGELEHHHHHH,failed
4,MGCDFAIAKDFLLFFLTKPISMKLSVIIPIYNEIQTIEKILKKITTVMPEIPKEIVMVDDGSKDGTREWLVDTFGDPEQHPVLANVNLAGKFQCFPLDQSAETNGDRQGNSFVMPKEWEVKVIFHRQNQGKGGALHTAFAAATGDVLIIQDADLEYDPEDWGPMWKLIDGGWADVVYGSRFYGNPHRVLYFHHYLGNKLITSLIDLVCNINLTDIEVCYKMFRREVLEDLRLTCNDFGFEVEFTMKVTRSPKRWRIYEVGVAYYGRTFAEGKKINWRDGVKALGYIAKFWLTNALEHHHHHH,failed
5,MGDEALVVDPLRFIDVYEQVAQQEGVTITHIVDSHLHADHLSGGKALAERTGAAYYLMKSEGAVFDFEPLEQHETIDFENVHLEVLAVKTPGHTPGSVSFFVNGKWLFSGDTIFVGGLGRPDLGGKVAEWAEDLYHTVYEKVAAMADDVIVLPAHYANLDEEINAEGYVGDTLGRIRARNEMMQNKAKDEFIDLVIQGLEHHHHHH,failed
6,MGDGAVKQGFLYLQQQQTFGKKWRRFGASLYGGSDCALARLELQEGPEKPRRCEAARKVIRLSDCLRVAEAGGEASSPRDTSAFFLETKERLYLLAAPAAERGDWVQAICLLAF,not failed
7,MGDNWRYEVKYDGFRTILFWTKETIRLESRNERLLTDQFPEIHDFCQRISNKVEAWLPITIDGELVHLVSPYRAHFAPIQTRSFMRKHETIAASSIKTPATLLAFDILELKGKTLVDLPYDERKKQLKALLKAIDVPLEHHHHHH,failed
8,MGDQRFDVLITGGTLVDVVTGELRPADIGIVGALIASVHEPASRRDAAQVIDAGGAYVSPGLIDTHMHIESSMITPAAYAAAVVARGVTTIVWDPHEFGNVHGVDGVRWAAKAIENLPLRAILLAPSCVPSAPGLERGGADFDAAILADLLSWPEIGGIAEIMNMRGVIERDPRMSGIVQAGLAAEKLVCGHARGLKNADLNAFMAAGVSSDHELVSGEDLMAKLRAGLTIELRGSHDHLLPEFVAALNTLGHLPQTVTLCTDDVFPDDLLQGGGLDDVVRRLVRYGLKPEWALRAATLNAAQRLGRSDLGLIAAGRRADIVVFEDLNGFSARHVLASGRAVAEGGRMLVDIPTCDTTVLKGSMKLPLRMANDFLVKSQGAKVRLATIDRPRFTQWGETEADVKDGFVVPPEGATMISVTHRHGMAEPTTKTGFLTGWGRWNGAFATTVSHDSHNLTVFGGNAGDMALAANAVIGTGGGMAVASEGKVTAILPLPLSGLVSDAPLEEVARAFEDLREAVGKVVEWQPPYLVFKACFGATLACNIGPHQTDMGIADVLTGKVMESPVIEVLEHHHHHH,failed
9,MGDSMSLDWDKLRIFHAAAEAGSFTHAADKLHLSQSAISRQVSSLEQDVGIKLFHRHARGLILTEQGEMLYRTAHDVLMKLESVKAQLSETTDKPSGKLRITTTVGLGQGWLTDKIQEFMSLYPEIQVQLILDNEELDVNMRHADCAIRLRQPQQSDLIQRKLFTVHMHVYAAPSYINKYGEPQSLDDLDNHRIITFGEPAPNYLLDVNWLEIAGRDSDNPRISHLQINSQTSIKRACLLGIGIAMLPDYIVGRDPGLIQLPISADIPSFDTYFCYPDELKNAAKLKVFRDYIVAKARNWNF,failed
10,MGDSPMNKNAKPDLAGTAALALDKGDPLLTPASVSQRDDARSQQPLGREALDVFVAWSIIGIFLIMSMAVIHELSMILMPVVMAVVVGMILGISAEKLASYGIPGAGVALILSTLVAAVIFFVVNSLIDPVSQLATEGPALIERSIDRFLPYVQNLRWLNISAATFSMGSMSMESLISRSGEIITLLGANVTPAIVQGLIFLAALLMFLYSRLRLRKALIMVFPARHQRLRTIRIIGSVEKVLGTYFATASLIYAALGVTMIVIAYVGGLSMPLLWGLFAFLSSFVPFLGITLMTISLTIAGIIAHDNMILALLPAGVFFTIHLLMENLAFPAVVGRNMEINPFLVFVMIIFWTWMWGAAGAMLALPLSLIAMTVTRELFPSRRVVPKLPD,failed
11,MGEMAPTLVLKNATYLNSVRGKWLDANIWIYQDRIVYVGQDMPAKLDDETEVVDCGQQVIVPGYIEHHAHPFQLYNPHSFANYAAAMGTTTLINDNLEHHHHHH,not failed
12,MGENNSHKHSLLFIVLISCAAGLGGLLYGYDTAVISGAIGFLKKLYNLSPAMQGFVISSIMVGGVLGVGFSGFLGDAIGRRKVLMLAAALFAISAVISSISTSAFMLIFARIVGGLGIGMASALSVTYITECAPPSIRGRLSSLYQLFTILGISITFFVNLGIVNMGSETWRVSTGWRYMLACGTVPAIVFLITLFFVPESPRFLVKSGNIKKAAAVLTKINGAEIAKQELDSISKSLATENDSSLGQLLQPGLRRALLIGIFLAIFNQAIGMNSITYYGPEIFQMIGFKNNSSFLATSVIGVVEVFSTILAMFLIDKLGRKKLMEIGSAAMAVFMLLIGTSFYIKLSNGFVILIFIICFVVSFCISMGPIPWIMIPEIFPNHLRARATGIATIFLWGANWAIGQFTPMLLNGIGGAYTFWIFCGINVICFLVVTTKVPETKNKSLEEIEKFWIPKSKQNAKGSSVGAK,failed
13,MGERIIPKNMKPMNGMLLEHLARYYFSTPYASGRVLDIACGTGYGSVMVAKTRKTEVDQVLGVDFDADVIHYAKQNYYHPKVSFLVGDAMDPYLRNQIGTFDTILSFETIEHVKDDRLFIERMRQLLKKDGTLVLSTPFGQGRGKPSDEPFHYHQLTEEEFRSLFDSFSEKEVFYQRGVTIEPKRTNVHYAFGVAVCKLEHHHHHH,failed
14,MGERSDSRLAAMRTDELNIDVVLVQRLVAGQFPRWAGLGVEAVDSGGTSNAMYRLGADLVVRLPRRAGAEGDVAKEHRWLPWLAPRLPVAVPVPLGQGLPAGNYPFRWSVYRWLDGATPDVGHLVAPGLLAEDLAGFIDALHRVDPAGGPDSYRSEHLAVRDTVTREAIEELRGVVDADAARAVWETALRAPVWAGPPVWIHADLQPGNVLVDRGRLGAVIDFGCLGLGDPAVDLIVAWYVLPGDVREAFRAAVAADDASWARGRGWALSIALVELRYYRDTNPVMAGHARRVIREVLDGRER,failed
15,MGEVWTWIISFLILITLLGLIVYQLISLADLEFDYINPYDSASRINFVVLPESILQGFLCVFYLVTGHWFMALLCVPYLYYNFHLYSRKQHLIDVTEIFNLLDWEKKKRLFKLAYIILTLFLTIFWLIYSTLDDYED,failed
